As usually defined, the IC50 is the concentration needed to halve the response being measured.

This is an account of results in patent US20120066777A1 (SHIONOGI, published 2012).

Test [1] concerns the target T1, human recombinant CCDC3 protein (human, UniProt Q9BQI4 22-270).
T1 construct: Secreted from Freestyle293 cells, purified from culture supernatant, 3xFlag tag removed with thrombin (31 kDa); the C-terminus at 270 follows from the C-terminus peptide 259-270; Also used biotin-labelled (PEO-maleimide biotin) as tracer; also called human CCDC3 recombinant protein; human CCDC3 protein
T1 sequence: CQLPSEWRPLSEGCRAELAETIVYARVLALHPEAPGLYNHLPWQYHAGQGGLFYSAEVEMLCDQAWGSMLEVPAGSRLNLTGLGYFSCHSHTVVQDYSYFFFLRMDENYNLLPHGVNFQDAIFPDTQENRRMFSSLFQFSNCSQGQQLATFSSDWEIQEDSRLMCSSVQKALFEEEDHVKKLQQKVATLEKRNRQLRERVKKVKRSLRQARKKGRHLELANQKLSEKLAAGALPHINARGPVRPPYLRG
As to the kind of experiment: displacement ELISA: captured antibody, unlabelled human recombinant CCDC3 (0.01 to 100 nM) against biotin-human recombinant CCDC3. As to the method:
A buffer A containing 10 μl of CCDC3 antibody was added to the anti-mouse IgG antibody-anchored plate, and 10 μl of 0.01 to 100 nM human recombinant CCDC3 was added. The mixture was allowed to react at 4° C. for 16 hours after adding buffer A (10 μl) that contained 1 ng of biotin-human recombinant CCDC3 protein and 4 ng of Streptavidin-HRP (PIERCE). Each well was washed three times with washing liquid (90 μl), and 25 μl of TMB+Substrate-Chromogen (DAKO) was added to develop color at room temperature for 30 min. The reaction was stopped by adding 25 μl of 0.5 M sulfuric acid, and absorbance at 450 nm was measured.
A general note: An ELISA detects its analyte on a solid surface through an enzyme-linked reagent.

The target in test [2] is T2, human CCDC3 protein C-terminus partial peptide (259-270) (human, PEO-maleimide activated biotin on the added N-terminal Cys).
T2 construct: the immunogen was the 12 mer conjugated to KLH; also called biotin-human CCDC3 protein C-terminus region peptide
As to the kind of experiment: raised against the peptide-KLH; hybridoma screened by ELISA on the biotin-labelled peptide. As to the method:
Specific antibody producing cells were screened 10 days after the cells were fused. Screening was performed by ELISA, as follows. A Tris buffer (50 mM Tris-HCl, pH 7.5, 35 μl) containing anti-mouse IgG antibodies (0.35 μg; Shibayagi Co., Ltd.) was added to each well of a 384-well microtiter plate (Nunc), and the antibodies were immobilized at 4° C. for 16 hours. The wells were washed once with 90 μl of washing liquid (physiological saline containing 0.01% Tween 20), and left unattended at room temperature for 2 hours for blocking after adding […] of Block Ace (Dainippon Pharma) (anti-mouse IgG antibody-anchored plate). After washing each well once with washing liquid (90 μl), a hybridoma culture supernatant (15 μl) and buffer A (10 μl; 50 mM Tris buffer containing 0.5% bovine serum albumin, 0.01% Tween 80, 0.05% Proclin 150, and 0.5 M NaCl; pH 7.4) were added. When the immunogen was the peptide-KLH conjugate, buffer A (10 μl) containing 0.02 ng of the biotin-human CCDC3 protein C-terminus region peptide and 2 ng of Streptavidin-HRP (PIERCE) was added. When the immunogen was the human recombinant CCDC3 protein or its KLH-conjugate, buffer A (10 μl) containing 1 ng of the biotin-human recombinant CCDC3 protein and 4 ng of Streptavidin-HRP (PIERCE) was added. […] The reaction was stopped by adding 25 μl of 0.5 M sulfuric acid, and absorbance at 450 nm was measured.

B1: 6G12 antibody (antibody, IgG1, V domains shown)
VH: QVQLQQPGAELVRPGASVKMSCKASGYTFSSYLMDWVKQRPGQGFECIGNINPNTGSTIYNERFKGKAKLTVDKSSSTAYMQLISLTSEDSAVYYCAADGYYAPFTYWGQGTLVTVSA
VL: DIVMTQAAPSVPVTPGESVSISCRSSKSLLHNNGNTYLYWFLQRPGQSPQLLIYRMSNLASGVPDRFSGSGSGTAFTLRISRVEAEDVGVYYCMQHLEYPFTFGAGTKLELKR
notes: Mouse hybridoma monoclonal, isotype IgG1; From a mouse immunized with antigen 3 (human recombinant CCDC3); Used biotinylated as capture antibody in the sandwich ELISA; also called human anti-CCDC3 antibody 6G12
For the molecule B1, in test [1], the IC50 is 3.2 nM.

B2: 3H6 antibody (antibody, IgG2b, V domains shown)
VH: QIQLVQSGPELKKPGETVKISCKASGYTFTNYGMIWVKQAPGKDLKWMAWINTYSGEPTCADDFKGRFAFSLETSASTAYLQINNLKNEDMATYFCARDDGYYGYFDYWGQGTTLTVSS
VL: DVVMTQTPLSLPVSLGDQASISCRSSQTLVHSDGNTYLHWYLQKPGQSPKLLIYKISNRFSGVPDRFSGSGSGTDFTLKISRVEAEDLGVYFCSQSTHVPPTFGGGTKLEIKR
notes: Mouse hybridoma monoclonal, isotype IgG2b; From a mouse immunized with antigen 1 (human CCDC3 C-terminus peptide 259-270 conjugated to KLH); Used biotinylated as capture antibody in the sandwich ELISA; also called human anti-CCDC3 antibody 3H6
For B2, in test [1], the IC50 turned out to be 9.4 nM. Moreover, in test [2], the binding result is given as “binds”.

B3: 11E10 antibody (antibody, IgG2b, V domains shown)
VH: QVQLQQSGPELVKPGASVKISCKASGYSFRSYYIHWMKQSPGQGLEWIAWIYPGGGKIYYNDNEKFKDKVTLTADTSSSTAYMQLTGLTSEDSAVYFCARWGGYYVGSILDYWGQGTSVTVSS
VL: DGDIVMTQSQKFLSTSVGDRVSVTCKASQNVDNNVAWYQQRPGQSPKPLIYLTSSRYSGVPDRFTGSGSGTDFTLTITNVQSEDLAEYFCQQYKTYPLTFSVGTKLELKRA
notes: Mouse hybridoma monoclonal, isotype IgG2b; From a mouse immunized with antigen 2 (human recombinant CCDC3-KLH conjugate); also called human anti-CCDC3 antibody 11E10
For the molecule B3, in test [1], the IC50 stood at 0.1 nM.
